# Source: IntAct's records for PubMed 21362419
# B1: Tyrosine-protein kinase JAK2 (Mus musculus), Q62120 (parent)
# chain: MGMACLTMTEMEATSTSPVHQNGDIPGSANSVKQIEPVLQVYLYHSLGQAEGEYLKFPSGEYVAEEICVAASKACGITPVYHNMFALMSETERIWYPPNHVFHIDESTRHDILYRIRFYFPHWYCSGSSRTYRYGVSRGAEAPLLDDFVMSYLFAQWRHDFVHGWIKVPVTHETQEECLGMAVLDMMRIAKEKDQTPLAVYNSVSYKTFLPKCVRAKIQDYHILTRKRIRYRFRRFIQQFSQCKATARNLKLKYLINLETLQSAFYTEQFEVKESARGPSGEEIFATIIITGNGGIQWSRGKHKESETLTEQDVQLYCDFPDIIDVSIKQANQECSNESRIVTVHKQDGKVLEIELSSLKEALSFVSLIDGYYRLTADAHHYLCKEVAPPAVLENIHSNCHGPISMDFAISKLKKAGNQTGLYVLRCSPKDFNKYFLTFAVERENVIEYKHCLITKNENGEYNLSGTKRNFSNLKDLLNCYQMETVRSDSIIFQFTKCCPPKPKDKSNLLVFRTNGISDVQISPTLQRHNNVNQMVFHKIRNEDLIFNESLGQGTFTKIFKGVRREVGDYGQLHKTEVLLKVLDKAHRNYSESFFEAASMMSQLSHKHLVLNYGVCVCGEENILVQEFVKFGSLDTYLKKNKNSINILWKLGVAKQLAWAMHFLEEKSLIHGNVCAKNILLIREEDRRTGNPPFIKLSDPGISITVLPKDILQERIPWVPPECIENPKNLNLATDKWSFGTTLWEICSGGDKPLSALDSQRKLQFYEDKHQLPAPKWTELANLINNCMDYEPDFRPAFRAVIRDLNSLFTPDYELLTENDMLPNMRIGALGFSGAFEDRDPTQFEERHLKFLQQLGKGNFGSVEMCRYDPLQDNTGEVVAVKKLQHSTEEHLRDFEREIEILKSLQHDNIVKYKGVCYSAGRRNLRLIMEYLPYGSLRDYLQKHKERIDHKKLLQYTSQICKGMEYLGTKRYIHRDLATRNILVENENRVKIGDFGLTKVLPQDKEYYKVKEPGESPIFWYAPESLTESKFSVASDVWSFGVVLYELFTYIEKSKSPPVEFMRMIGNDKQGQMIVFHLIELLKSNGRLPRPEGCPDEIYVIMTECWNNNVSQRPSFRDLSLRVDQIRDSIAA
# partner: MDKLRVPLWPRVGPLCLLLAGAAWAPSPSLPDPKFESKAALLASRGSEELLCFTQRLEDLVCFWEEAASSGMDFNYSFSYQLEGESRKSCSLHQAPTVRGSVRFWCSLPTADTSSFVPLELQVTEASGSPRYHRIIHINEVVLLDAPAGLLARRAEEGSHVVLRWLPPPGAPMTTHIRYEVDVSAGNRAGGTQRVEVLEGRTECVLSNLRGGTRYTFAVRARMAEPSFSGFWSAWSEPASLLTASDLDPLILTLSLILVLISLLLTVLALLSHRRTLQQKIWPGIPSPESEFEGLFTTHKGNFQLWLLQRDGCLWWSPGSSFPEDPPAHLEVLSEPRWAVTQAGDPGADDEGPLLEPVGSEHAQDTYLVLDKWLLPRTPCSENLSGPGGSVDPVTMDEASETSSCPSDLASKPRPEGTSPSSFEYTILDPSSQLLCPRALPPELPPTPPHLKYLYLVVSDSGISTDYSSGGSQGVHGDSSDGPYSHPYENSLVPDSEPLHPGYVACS
# Variants of: B1
# Settings: with epor_mouse Epor
row,effect of a mutation on the interaction,Variant
1,increasing interaction,K539L

# Variants of: B1
# Settings: with epor_mouse Epor
# Remark: another data set of the same source
row,effect of a mutation on the interaction,Variant
1,increasing interaction,T875N

# Variants of: B1
# Settings: with epor_mouse Epor
# Remark: another data set of the same source
row,effect of a mutation on the interaction,Variant
1,increasing interaction,V617F
